From US20240116987A1, “POLYPEPTIDE INHIBITORS OF LACTATE DEHYDROGENASE ACTIVITY FOR USE IN CANCER THERAPY” (UNIVERSITÉ CATHOLIQUE DE LOUVAIN, priority 2021, published 2024) come the findings set out here.

A value given as a limit tells only on which side of the number the result lay.

A short description of series [1]: Chemical denaturation with guanidinium-HCl followed by intrinsic fluorescence. The series is classed as physicochemical, human. The conditions noted are these: protein 1.3 μM, means ± SEM, n=6. As to the method: (§1) All spectrophotometric experiments were performed with opaque 96-well plates using a Spectramax m2e spectrophotometer (Molecular Devices) following previously described in Thabault et al. (see above).
(§2) Intrinsic fluorescence assays: full tryptophan fluorescence spectra were recorded using an excitation wavelength of 286 nm and recording the emission spectra from 320 to 400 nm at room temperature. The raw fluorescence of each experiment was subtracted to a corresponding control experiment without the protein. Experiments were performed in a 50 mM sodium phosphate and 100 mM NaCl, pH 7.6, buffer. For dissociation in subunits, increasing amounts of guanidinium-HCl ranging from 0.3 M to 2 M were put in contact with the studied proteins (1.3 μM), and fluorescence spectra were recorded afterwards.

Series [2] can be described thus: Intrinsic tryptophan fluorescence spectra. Type of series: physicochemical, human. The conditions noted are these: 1.3 μM, λexc 286 nm, n=6. As to the method: as §1, §2
Series [3] in a line: NanoDSF thermal denaturation of LDH-H variants. The series is classed as physicochemical, human. The conditions noted are these: for Ratio 350/330 nm (initial): nanoDSF fluorescence ratio; for Tm: means ± SEM, n=6. As to the method:
NanoDSF was performed following previously described by Thabault et al. (see above). • a) Variant evaluation
Solutions of proteins (LDH-H, LDH-Htr, or variants), stored in a 50 mM sodium phosphate, 100 mM NaCl and 20% glycerol, pH 7.6, were evaluated on a Tycho NT.6 device (NanoTemper Technologies®) using concentrations […]. According to standard manufacturer's procedures, samples were poured into capillaries and heated up to 95° C. in 3 min, while following fluorescence emission at 330 and 350 nm. Melting temperatures were extracted from the derivative of the 350/330 nm fluorescence ratios upon increasing temperature. • b) Peptide evaluation
Background: Differential scanning fluorimetry follows unfolding on heating by fluorescence.

For another series, the target named is tetrameric LDH-5 (Homo sapiens, UniProt P00338). The series is described as follows: NanoDSF thermal destabilization of tetrameric LDH-5 by peptide. The series is classed as binding. As to the method: (§3) NanoDSF was performed following previously described by Thabault et al. (see above). • a) Variant evaluation Solutions of proteins (LDH-1, LDH-5 or LDH-Htr) with peptides were evaluated on a Tycho NT.6 device (NanoTemper Technologies®). Evaluations were performed in a 50 mM sodium phosphate and 100 mM NaCl pH 7.6 buffer. According to standard manufacturer's procedures, samples were poured into capillaries and treated as above.

Another series has as its target T1, LDH-Htr (Homo sapiens, UniProt P07195).
T1 construct: using the model of dimeric LDH (LDH-Htr); made in house; host or cells: E. coli Rosetta (DE3)
Put plainly: Microscale thermophoresis (MST) binding to labelled LDH-Htr. The conditions noted are these: 1.5 s MST on time, n=3, labelled LDH-Htr 100 nM. As to the method:
MST measurements were performed on a Nanotemper® Monolith NT.115 instrument (NanoTemper Technologies®) using Red-dye-NHS fluorescent labelling. LDH-Htr purified to homogeneity was labelled with the Monolith Red-dye-NHS 2nd generation labelling dye (Nanotemper Technologies®), according to the supplied protocol. Measurements were performed in 50 mM sodium phosphate, pH 7.6, and 100 mM NaCl containing 0.01% Tween-20 in standard-treated capillaries (NanoTemper Technologies®). The final concentration of proteins in the assay was 100 nM. Ligands were titrated in 1:1 dilutions following manufacturer's recommendations. Experiments were performed in triplicates using 40% LED power, high MST power, […] and Laser off time 3 s. Poypeptides were evaluated for their thermophoretic pattern, and Kd's were extracted from raw data at a 1.5 s MST on time following the manufacturer's instructions.
For orientation: MST reads how a fluorescent partner responds to local heating, with and without ligand.

Series [4] addresses T2, dimeric LDH-Htr (Homo sapiens, UniProt P07195).
T2 construct: using the model of dimeric LDH (LDH-Htr); made in house; host or cells: E. coli Rosetta (DE3)
The series is described as follows: NanoDSF thermal shift of dimeric LDH-Htr with peptide. The series is classed as binding. The settings on record: LDH-Htr 15 μM, polypeptide 500 μM, n=3. As to the method:
as §3

Series [5] addresses T2, dimeric LDH-Htr. The series is described as follows: NMR WaterLOGSY with dimeric LDH-Htr. The series is classed as binding. The settings on record: LDH-Htr 15 μM, LP-22 400 μM. As to the method: Human LDH-H (full length and truncated)-6His proteins for ^1D NMR were expressed and purified from E. coli, as described above. All experiments were performed on an […] system equipped with a broadband cryoprobe (Bruker®) following a previously described in Thabault et al. (see above).
For WaterLOGSY NMR studies, samples were prepared in 10% D2O containing 50 mM sodium phosphate buffer, pH 7.6, and 100 mM NaCl. The concentration of LDHs was ranging from 15 to 20 μM of monomer. Ligand binding was detected using a WaterLOGSY ephogsygpno.2 avance-version sequence with a 1 s mixing time. Water signal suppression was achieved using an excitation-sculpting scheme, and a 50 ms spinlock was used to suppress protein background signals.

T1 sequence (P07195 21-334): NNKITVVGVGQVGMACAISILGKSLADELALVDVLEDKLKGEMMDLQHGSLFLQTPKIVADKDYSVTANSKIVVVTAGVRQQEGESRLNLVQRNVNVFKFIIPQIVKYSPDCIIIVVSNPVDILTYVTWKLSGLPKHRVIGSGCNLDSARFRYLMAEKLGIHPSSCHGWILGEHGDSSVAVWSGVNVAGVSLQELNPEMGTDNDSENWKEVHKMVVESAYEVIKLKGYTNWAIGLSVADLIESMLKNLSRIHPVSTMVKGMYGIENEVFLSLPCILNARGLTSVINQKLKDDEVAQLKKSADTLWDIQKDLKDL
T2 sequence (P07195 21-334): as above

What is called EC50 is the concentration giving half of the maximal effect. The Tm is the temperature at the midpoint of the melting transition. In turn, “L71A: LDH-H recombinant alanine variant L71A of SEQ ID NO: 2” had an EC50 in series [1] of less than 100000 µM. The “Tryptophan fluorescence intensity compared with LDH-1” value in series [2] is listed as “not L71A”. In series [3], the NanoDSF denaturation pattern result was “a lower initial ratio and a red-shift”; the “Ratio 350/330 nm (initial)” value was 0.90. Besides, in series [3] (nanoDSF), the “Tm difference versus LDH-Htr” value was found to be 10 °C and the Tm came to 67.1 ± 0.1 °C.

A word on the Kd: it is the concentration at which binding is half-saturated. A high value points to a looser complex. Take `CSCC[C@H](NC(=O)[C@H](CCC(=O)O)NC(=O)CNC(=O)[C@H](CCCCN)NC(=O)[C@H](CC(C)C)NC(=O)[C@H](CCCCN)NC(=O)[C@H](CC(=O)O)NC(=O)[C@H](CCC(=O)O)NC(=O)[C@@H](N)CC(C)C)C(=O)N[C@@H](CCSC)C(=O)N[C@@H](CC(=O)O)C(=O)N[C@@H](CC(C)C)C(=O)N[C@@H](CCC(N)=O)C(=O)N[C@@H](Cc1c[nH]cn1)C(=O)NCC(=O)N[C@@H](CO)C(=O)N[C@@H](CC(C)C)C(=O)N[C@@H](Cc1ccccc1)C(=O)N[C@@H](CC(C)C)C(=O)N[C@@H](CCC(N)=O)C(=O)N[C@H](C(=O)N1CCC[C@H]1C(N)=O)[C@@H](C)O` [LP-22]: at tetrameric LDH-5 (nanoDSF, tetrameric LDH-5 vs LDH-1), the “Destabilizing effect on LDH-5 compared to LDH-1” value is given as “higher destabilizing effect”. At LDH-Htr, the affinity, expressed as Kd, was 156 µM. Also, on dimeric LDH-Htr [4], the “ΔTm of dimeric LDH-Htr (stabilization)” value was 2.8 °C. In addition, the “WaterLOGSY saturation transfer with dimeric LDH-Htr” value at dimeric LDH-Htr [5] is “undergoes a saturation transfer”.

Take “LDH-Htr: dimeric model of LDH-H obtained by truncating its N-terminal tetramerization domain [reference compound]”: the EC50 in series [1] is less than 100000 µM. Further, in series [3], the NanoDSF denaturation pattern entry is reported as “concentration-dependent destabilization” and the “Ratio 350/330 nm (initial)” value turned out to be 0.87. The midpoint of thermal melting (Tm) in series [3] (nanoDSF) is 57.5 ± 0.1 °C.

Turning to “E62A: LDH-H recombinant alanine variant E62A of SEQ ID NO: 2”, in series [1], the EC50 is less than 100000 µM. In addition, the “Tryptophan fluorescence intensity compared with LDH-1” value in series [2] is recorded as “decays in fluorescence intensity characteristic of the dimeric forms of LDHs”. In addition, in series [3], the NanoDSF denaturation pattern result is listed as “denaturation patterns comparable to dimeric LDH-Htr” and the “Ratio 350/330 nm (initial)” value came out at 0.95. Also, in series [3] (nanoDSF), the midpoint of thermal melting (Tm) was 58.9 ± 0.1 °C.

In turn, “F72A: LDH-H recombinant alanine variant F72A of SEQ ID NO: 2” yielded an EC50 in series [1] of less than 100000 µM. For the same molecule, in series [2], the “Tryptophan fluorescence intensity compared with LDH-1” value was “decays in fluorescence intensity characteristic of the dimeric forms of LDHs”. Also, in series [3], the NanoDSF denaturation pattern entry is listed as “denaturation patterns comparable to dimeric LDH-Htr” and the “Ratio 350/330 nm (initial)” value came to 0.94. Also, the Tm in series [3] (nanoDSF) came out at 53.9 ± 0.1 °C.

As to Ac-GEMMDLQHGSLFLQTP-NH2 [GP-16], on tetrameric LDH-5 (LDH-5 300 nM, n=3, read-out: EC50 of ΔTm (destabilization) of tetrameric LDH-5), the EC50 is 262 µM. The same molecule came in with a Kd at LDH-Htr of 240 µM.
